From PMC7183857 come the findings set out here.

For the experiment, the target named is CA_(E180A) and CA_(E187A). As to the kind of experiment: co-sedimentation.

For the substance “MxB_(1–35)-MBPdi (from UniProt P20592 1-35)”, the binding as percent of WT CA tubes was 73 to 83 % of WT.
